Assay results: US20220308062A1, “METHODS FOR PREDICTING DRUG RESPONSIVENESS IN SAMPLES FROM CANCER SUBJECTS” (Board of Regents, The University of Texas System, priority 2019, published 2022)

Experiments:
Type in all cases: cell-based, human
[1] = system: patient-derived organoids (PDOs); assay: Patient-derived organoid CellTiter-Glo cell viability; conditions: Homo sapiens, 72 h; read-out: reduction in cell viability
Protocol: Patient-derived organoids (PDOs). Tumor tissues were minced on ice into 1 mm^3 small pieces. Tumor pieces (˜20 μl in volume) were resuspended in 200 μl Matrigel and seeded into 24 well plates for 15 min until gel solidify, followed by culture in advanced DMEM/F12 medium supplemented with B27 and N2 (Thermo Fisher Scientific), 0.01% BSA (Roche), 100 units/m penicillin-streptomycin (Thermo Fisher Scientific), and others (Table 4) for 4-8 weeks to grow organoids. […] The CellTiter-Glo Luminescent Cell Viability assay was used to determine drug responsiveness.

[2] = system: PMA-stimulated U937; assay: Immunofluorescence of IL-11 treated U937; conditions: 25 ng/ml, 72 hr
Protocol: Immunofluorescence. PMA-stimulated U937 were cultured and treated with 25 ng/ml IL-11 over 72 hr. Cells were then fixed with 4% paraformaldehyde for 15 minutes. After fixation, cells were incubated with fluorescence conjugated primary antibody (CD14, CD86 and CD163) for 1 hour. Slides were mounted with mounting medium with DAPI and the images were taken with fluorescence microscope.

[3] = system: PMA-stimulated U937 and THP-1; assay: Western blot of IL-11 treated macrophages; conditions: serial dosages, 72 hr
Protocol: Western blot analysis. PMA-stimulated U937 and THP-1 were cultured and treated with serial dosages of IL-11 over 72 hr. Cell lysates were harvested using RIPA buffer. The concentration of protein lysates was determined by Pierce™ BCA Protein Assay Kit (Thermo fisher). Forty micrograms of the total protein extracts were separated by NuPAGE™ 4-12% Bis-Tris Protein Gels (Thermo fisher) and transferred to PVDF membrane. The membranes were then blocked with 5% of Blotting-Grade Blocker (BioRad) in TBST and probed using primary antibodies against pSTAT3, STAT3 and GAPDH (Cell Signaling Technology; 2118S). Membranes were incubated in HRP-linked secondary antibodies following dilution with TBST (1:5000) at room temperature for one hour. Blots were developed using Western Lightning Plus-ECL Chemiluminescent Reagents (Perkin Elmer, Waltham, Mass.) and Syngene G:BOX Imaging System.

Molecule | cytotoxicity at 15 µM [1] | CD163 (immunofluorescence) [2] | pSTAT3 (western blot) [3]
N#CC[C@H](C1CCCC1)n1cc(-c2ncnc3[nH]ccc23)cn1 [ruxolitinib] | 10 to 20% | – | –
IL-11: cytokine, a member of the IL-6 cytokine family, used to treat PMA-stimulated U937 and THP-1 macrophages (protein, UniProt P20809 22-199, looked up) Interleukin-11: PGPPPGPPRVSPDPRAELDSTVLLTRSLLADTRQLAAQLRDKFPADGDHNLDSLPTLAMSAGALGALQLPGVLTRLRADLLSYLRHVQWLRRAGGSSLKTLEPELGTLQARLDRLLRRLQLLMSRLALPQPPPDPPAPPLAPPSSAWGGIRAAHAILGGLHLTLDWAVRGLLLLKTRL | – | up-regulated | up-regulated
